Data on three substances can be found in PMC8616066.

Assay [1] has as its target eGFP-MUC4β_(ΔEGF2) (human). In words: MST; Monolith NT.115; native fluorescence of the eGFP fusion proteins followed in cell lysate, titration against recombinant HER2-Fc; triplicate with two distinct cell lysates (n = 6).
The target of assay [2] is fluorescent tagged HER2 (human) (UniProt P04626). The experiment in a line: MST; Monolith NT.115; fluorescent tagged HER2, titration of purified GST fusion proteins.

With “recombinant HER2-Fc (from UniProt P04626 23-652) (Fc fusion)”, the Kd in assay [1] was found to be 97 nM. Take GST-MUC4_(EGF1) (domain or fragment): in assay [2], the dissociation constant Kd was found to be 75 nM. The same measure, in the same setting: the figure for GST-MUC4_(EGF2) (domain or fragment) is 242 nM.

The term Kd denotes the constant that tells how readily two partners part at equilibrium.
